From patent US20220298225A1 (published 2022) come the findings set out here.

Where two headings read alike, the source gives them in different places.

Common to all, as to experiment: ELISA
(ELISA stands for enzyme-linked immunosorbent assay.)

The target in assay [1] is Collagen III.
In assay [2] the target is Collagen I.
The target of assay [3] is Collagen III. This is another data set of the same source.
The target of assay [4] is Collagen I. This is another data set of the same source.

B1: CBD-SA (other)
chain: CSQPLDVILLLDGSSSFPASYFDEMKSFAKAFISKANIGPRLTQVSVLQYGSITTIDVPWNVVPEKAHLLSLVDVMQREGGPSQIGDALGFAVRYLTSEMHGARPGASKAVVILVTDVSVDSVDAAADAARSNRVTVFPIGIGDRYDAAQLRILAGPAGDSNVVKLQRIEDLPTMVTLGNSFLHKLCSGFVRIGGGSGGGSEAHKSEIAHRYNDLGEQHFKGLVLIAFSQYLQKCSYDEHAKLVQEVTDFAKTCVADESAANCDKSLHTLFGDKLCAIPNLRENYGELADCCTKQEPERNECFLQHKDDNPSLPPFERPEAEAMCTSFKENPTTFMGHYLHEVARRHPYFYAPELLYYAEQYNEILTQCCAEADKESCLTPKLDGVKEKALVSSVRQRMKCSSMQKFGERAFKAWAVARLSQTFPNADFAEITKLATDLTKVNKECCHGDLLECADDRAELAKYMCENQATISSKLQTCCDKPLLKKAHCLSEVEHDTMPADLPAIAADFVEDQEVCKNYAEAKDVFLGTFLYEYSRRHPDYSVSLLLRLAKKYEATLEKCCAEANPPACYGTVLAEFQPLVEEPKNLVKTNCDLYEKLGEYGFQNAILVRYTQKAPQVSTPTLVEAARNLGRVGTKCCTLPEDQRLPCVEDYLSAILNRVCLLHEKTPVSEHVTKCCSGSLVERRPCFSALTVDETYVPKEFKAETFTFHSDICTLPEKEKQIKKQTALAELVKHKPKATAEQLKTVMDDFAQFLDTCCKAADKDTCFSTEGPNLVTRCKDALAHHHHHH
For the molecule B1, the dissociation constant Kd (commonly the constant that tells how readily two partners part at equilibrium) with Collagen III [1] came out at 40.6 nM; with Collagen I [2], 1.8 nM; with Collagen III [3], 40.6 nM; with Collagen I [4], 1.8 nM.
